For test [1], the target named is T1, mouse FcγRII (mouse, UniProt P08101 30-210).
T1 construct: also called mFcγRII; mFcgRII
T1 sequence: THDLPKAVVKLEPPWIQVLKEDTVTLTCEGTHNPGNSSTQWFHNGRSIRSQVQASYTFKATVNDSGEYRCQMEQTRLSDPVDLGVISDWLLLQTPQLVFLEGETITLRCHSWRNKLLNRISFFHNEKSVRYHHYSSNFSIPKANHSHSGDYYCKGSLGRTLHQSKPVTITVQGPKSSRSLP
Description: SPR Biacore T200, KD ratio; lower end tied to MB425 by Table 8. On the technique in general: SPR reads the build-up and loss of mass on a sensor chip optically.

The target in test [2] is T1, mouse FcγRII. Briefly: SPR Biacore T200, KD ratio; lower end tied to MB684 by Table 20.
The target in test [3] is T1, mouse FcγRII. Briefly: SPR Biacore T200, KD ratio; upper end tied to MB682 by Table 20.
A further test deals with T2, mouse FcγRIII (mouse, UniProt P08508 31-215).
T2 construct: also called mFcγRIII; mFcgRIII
T2 chain: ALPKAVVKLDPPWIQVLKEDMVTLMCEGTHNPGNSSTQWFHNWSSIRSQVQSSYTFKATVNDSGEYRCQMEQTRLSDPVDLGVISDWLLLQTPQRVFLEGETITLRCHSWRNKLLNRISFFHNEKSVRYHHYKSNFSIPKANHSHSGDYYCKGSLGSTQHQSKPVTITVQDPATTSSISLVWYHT
Description: told of the L104-mk1 form; SPR was run on the MRAL-k0 form.

Test [4] has as its target T1, mouse FcγRII. The description is as above.

B1: H237-MB425/MRAL-k0 (antibody, mouse IgG1, kappa)
heavy: QVQLQESGPGLVKPSETLSLTCAVSGHSISHDHAWSWVRQPPGEGLEWIGFISYSGITNYNPSLQGRVTISRDNSKNTLYLQMNSLRAEDTAVYYCARSLARTTAMDYWGEGTLVTVSSAKTTPPSVYPLAPGSAAQTNSMVTLGCLVKGYFPEPVTVTWNSGSLSSGVHTFPAVLQSDLYTLSSSVTVPSSTWPSETVTCNVAHPASSTKVDKKIVPRDCGCKPCICIPAEVEDVFIFPPKPKDVLTITLTPKVTCVVVDISKDDPEVQFSWFVDDVEVHTAQTQPREEQFNSTFRSVSELPIMHQDWLNGKEFKCRVNSAAFPAPIEKTISKTKGRPKAPQVYTIPPPKEQMAKDKVSLTCMITDFFPEDITVEWQWNGQPAENYKNTQPIMDTDGSYFVYSKLNVQKSNWEAGNTFTCSVLHEGLHNHHTEKSLSHSPGK
light: not shown
notes: mIgG1 with T230I/V231P/P232A/S238E/S239D; also called template T7; copies: 2 + 2
Regarding B1, the “relative mFcγRII-binding activity (H237-mIgG1/MRAL-k0 = 1)” value with mouse FcγRII [1] amounted to 200 fold.

B2: MB684 (antibody)
heavy: QVQLQESGPGLVKPSETLSLTCAVSGHSISHDHAWSWVRQPPGEGLEWIGFISYSGITNYNPSLQGRVTISRDNSKNTLYLQMNSLRAEDTAVYYCARSLARTTAMDYWGEGTLVTVSSAKTTPPSVYPLAPGSAAQTNSMVTLGCLVKGYFPEPVTVTWNSGSLSSGVHTFPAVLQSDLYTLSSSVTVPSSTWPSETVTCNVAHPASSTKVDKKIVPRDCGCKPCICQPKEVEDVFIFPPKPKDVLTITLTPKVTCVVVDISKDDPEVQFSWFVDDVEVHTAQTQPREEQFNSTFRSVSELPIMHQDWLNGKEFKCRVNSAAFPAPIEKTISKTKGRPKAPQVYTIPPPKEQMAKDKVSLTCMITDFFPEDITVEWQWNGQPAENYKNTQPIMDTDGSYFVYSKLNVQKSNWEAGNTFTCSVLHEGLHNHHTEKSLSHSPGK
light: not shown
notes: copies: 2 + 2
B2: in the test with mouse FcγRII [2], the “relative mFcγRII-binding activity (H237-mIgG1/MRAL-k0 = 1)” value was in the range of 5 to 15 fold.

B3: MB682 (antibody)
heavy: QVQLQESGPGLVKPSETLSLTCAVSGHSISHDHAWSWVRQPPGEGLEWIGFISYSGITNYNPSLQGRVTISRDNSKNTLYLQMNSLRAEDTAVYYCARSLARTTAMDYWGEGTLVTVSSAKTTPPSVYPLAPGSAAQTNSMVTLGCLVKGYFPEPVTVTWNSGSLSSGVHTFPAVLQSDLYTLSSSVTVPSSTWPSETVTCNVAHPASSTKVDKKIVPRDCGCKPCICEPKEVEDVFIFPPKPKDVLTITLTPKVTCVVVDISKDDPEVQFSWFVDDVEVHTAQTQPREEQFNSTFRSVSELPIMHQDWLNGKEFKCRVNSAAFPAPIEKTISKTKGRPKAPQVYTIPPPKEQMAKDKVSLTCMITDFFPEDITVEWQWNGQPAENYKNTQPIMDTDGSYFVYSKLNVQKSNWEAGNTFTCSVLHEGLHNHHTEKSLSHSPGK
light: not shown
notes: copies: 2 + 2
In the case of B3, in the test with mouse FcγRII [3], the “relative mFcγRII-binding activity (H237-mIgG1/MRAL-k0 = 1)” value is 5 to 15 fold.

B4: H237-mF46/L104-mk1 (antibody, mouse IgG1, kappa)
heavy: QVQLQESGPGLVKPSETLSLTCAVSGHSISHDHAWSWVRQPPGEGLEWIGFISYSGITNYNPSLQGRVTISRDNSKNTLYLQMNSLRAEDTAVYYCARSLARTTAMDYWGEGTLVTVSSAKTTPPSVYPLAPGSAAQTNSMVTLGCLVKGYFPEPVTVTWNSGSLSSGVHTFPAVLQSDLYTLSSSVTVPSSTWPSETVTCNVAHPASSTKVDKKIVPRDCGCKPCICTVPEVSDVFIFPPKPKDVLTITLTPKVTCVVVDISKDDPEVQFSWFVDDVEVHTAQTQPREEQFNSTFRSVSELPIMHQDWLNGKEFKCRVNSADFPAPIEKTISKTKGRPKAPQVYTIPPPKEQMAKDKVSLTCMITDFFPEDITVEWQWNGQPAENYKNTQPIMDTDGSYFVYSKLNVQKSNWEAGNTFTCSVLHEGLHNHHTEKSLSHSPGK
light: DIQMTQSPSSLSASVGDSVTITCQASTDISSHLNWYQQKPGKAPELLIYYGSHLLSGVPSRFSGSGSGTDFTFTISSLEAEDAATYYCGQGNRLPYTFGQGTKVEIERADAAPTVSIFPPSSEQLTSGGASVVCFLNNFYPKDINVKWKIDGSERQNGVLNSWTDQDSKDSTYSMSSTLTLTKDEYERHNSYTCEATHKTSTSPIVKSFNRNEC
notes: the text speaks of it for this form; copies: 2 + 2
With B4, the binding result with mouse FcγRIII and in the test with mouse FcγRII [4] was “binds” each time.
